B1: LINE1-full (parent)
chain: UACGUAGGUGGUUUUCCCCUGAUAGUGCUAAGGGGGCCUGGAAGUUUGGACUGGGCAGAGCUCAACACAGCGUGGCAAAGUGGCUGUGGCUAGACUGCCUCUCUGGAUUCCUCGUCACUCAGCAGGGCAUCUCUGAGAGAAAUGCC

The variants in this data set derive from B1. In words: self-cleavage, relative activity (ratio to wild type); higher = more cleavage; in vitro, sequencing; the parent is a self-cleaving ribozyme.
Consider C120A A140G, for which the self-cleavage came to 1.32. Turning to G127U A138G, the self-cleavage was determined as 1.29. As for A117U A140G, the self-cleavage came to 1.43.

Take A117U A121U: the self-cleavage was 1.57. For A117U A121G, the self-cleavage was found to be 1.81. Take A117G A136U: the self-cleavage was 1.48. Then A117G A136G, with 1.66; and A124G A136C, with 1.19. Then A124G A136G, with 1.14. G122U: the self-cleavage is 1.3. Then G122C, with 1.5; and G122A, with 1.13. Regarding U119A A121G, the self-cleavage came out at 1.27.

Turning to A129U A141G, the self-cleavage came out at 1.34. Then A124G C146A, with 0.84.

Regarding C118U A124U, the self-cleavage was 1.04. Then A121G A140C, with 1.93. Then A121G A140U, with 1.45. For the variant G122A A129G, the self-cleavage is 1.19. Under U115C U130A stands 1.78; under U115C U130C, 2.03; under U119C C123U, 0.62. Take U119C C123A: the self-cleavage was found to be 1.36. In the case of A121U G144A, the self-cleavage is 1.86. For the variant C123U A141G, the self-cleavage amounted to 1.24. In the case of A117G A138U, the self-cleavage stood at 1.13. Consider A117G A138G, for which the self-cleavage worked out at 1.59. Under A124C U134C stands 2.04; under U115C G125A, 1.82. Then A121U A136U, with 1.07; and A121U A136G, with 1.47. In the case of A124C A141G, the self-cleavage turned out to be 1.71.

For A124U A141U, the self-cleavage amounted to 1.27. With U119C G126U, the self-cleavage stood at 1.67. On to A129U U134A, for which the self-cleavage was found to be 1.37. Under A129U U134G stands 1.53. Then A129U U134C, with 1.22; and G122C A140C, with 1.71; and A124G A138U, with 1.23. Take U130A G137A: the self-cleavage was determined as 1.84.

With U115C G139U, the self-cleavage turned out to be 1.79. Then G127A A140U, with 1.26; and A129C G135A, with 2.11; and A124G A129U, with 1.06.

With A124G A129G, the self-cleavage came to 0.96. Then U130A U132C, with 1.41; and C120U A136G, with 1.39; and A117U A129C, with 1.23.

As to A117U A129U, the self-cleavage amounted to 1.78. For the variant A117U A124G, the self-cleavage was 1.3. With C116U A117G, the self-cleavage was found to be 1.61. As to U119G A129G, the self-cleavage was 1.15. Regarding C123U A129G, the self-cleavage came out at 1.37. Then A121C A142G, with 1.1; and C120U A140G, with 1.1; and U119C U134G, with 1.58.

As for U119C U134C, the self-cleavage amounted to 2.11.

Consider A124G A141G, for which the self-cleavage amounted to 1.39. Then G122A A136G, with 1.54; and U115C A136G, with 1.83. In the case of C118U U143C, the self-cleavage turned out to be 0.87. Consider U119C A140U, for which the self-cleavage was 0.97. In the case of G125U A138G, the self-cleavage came to 2.25. Under C116A A141U stands 1.47; under A129G G135A, 1.63.

Take C120A A121U: the self-cleavage is 0.93. Consider C120A A121G, for which the self-cleavage worked out at 1.39. Turning to C123U A142G, the self-cleavage worked out at 1.32. In the case of U119C A121G, the self-cleavage is 1.23. Under C120U U132C stands 1.56; under G125A A140U, 0.61; under A121G G125U, 1.8. Turning to U115C A142C, the self-cleavage was found to be 2.05. Under U115C A142U stands 1.56; under A121U C146U, 1.73.

For the variant A117G U134C, the self-cleavage was found to be 1.73. As to G125A U143C, the self-cleavage stood at 0.64. Then U115C A138U, with 1.64; and A124U A129G, with 1.72. Under A124G U130C stands 1.58. Take U115C C145A: the self-cleavage is 1.84.

U119C U132C: the self-cleavage was 2.32. As for U119C U132G, the self-cleavage came out at 2.83. For the variant A117U G137C, the self-cleavage came to 2.13.

Consider G125A U130A, for which the self-cleavage stood at 1.61.

Consider G125A U130C, for which the self-cleavage turned out to be 1.69.

On to C118U U134A, for which the self-cleavage amounted to 1.11. As for G127C U132C, the self-cleavage turned out to be 1.99. In the case of A121U U130C, the self-cleavage was 1.7.

On to G126A U130C, for which the self-cleavage came out at 1.41.

A117G A141G: the self-cleavage was determined as 1.71. A117G A141U: the self-cleavage was 1.69. Under C118A A138U stands 1.47; under C120U A121G, 0. Regarding C120A, the self-cleavage was determined as 1.41. Then C120U, with 1.37. Then U115C U119A, with 1.78; and U115C U119G, with 2.63; and A117G C123U, with 1.48. Consider G125A C146U, for which the self-cleavage turned out to be 1.36. Regarding G125A A129G, the self-cleavage turned out to be 1.38. Then G125A A129U, with 0.46; and G122A A124G, with 0.62. For the variant U115C G144C, the self-cleavage came to 2.13. Regarding G125U A142G, the self-cleavage was found to be 1.33.

On to A121U U132C, for which the self-cleavage was found to be 1.36.

Consider U119G C146U, for which the self-cleavage was 1.86.

As to U119A G122A, the self-cleavage was found to be 1.35. Then U130A U134A, with 1.33; and U130A U134C, with 1.84. On to U119A A141G, for which the self-cleavage was found to be 1.74. Consider G127U A140G, for which the self-cleavage is 1.27. Then U119C A129G, with 1.88; and A124U U143A, with 1.75. Then A124U U143C, with 1.26; and C118U C145U, with 0.86; and A117U U119A, with 0.99. C120U G126A: the self-cleavage was 2.01. For the variant A124G A140U, the self-cleavage turned out to be 0.94. For the variant G127U U143C, the self-cleavage turned out to be 1.66.

On to A129G A140U, for which the self-cleavage came out at 1.8. Take A129G A140C: the self-cleavage came out at 0.74. Take U115C G135A: the self-cleavage was 2.23. Under A121G G135A stands 2.36; under U115C C123A, 1.49; under A124U U130C, 1.66. Under A124U U130A stands 1.7. Turning to A124C A140G, the self-cleavage is 1.88.

Take A117G A129G: the self-cleavage stood at 1.32. As to A117G A129C, the self-cleavage was found to be 1.93.

In the case of A129G A138U, the self-cleavage is 2.12.

Take A121C A138G: the self-cleavage came to 2.34. On to A121U G126U, for which the self-cleavage came out at 1.5. Then G127A A138U, with 1.5; and U119G A136G, with 0.94. For the variant A121G C123U, the self-cleavage came to 1.07. Under A129C U132C stands 0.96; under A124U A142G, 1.51. Then A117U C146G, with 0.92; and G125U A136G, with 0.79. Then A129G U134G, with 1.65; and C118U U132C, with 1.81. Turning to G125U U143C, the self-cleavage came to 1.08. A117C A136G: the self-cleavage was 1.79. Then G126U A140G, with 0.66; and A117G C120U, with 2.18; and A124G U143A, with 0.98. In the case of A124G U143C, the self-cleavage came out at 0.62. In the case of U115C A124G, the self-cleavage came to 1.13. Then U115C A124U, with 1.69; and U115C G126A, with 1.85; and A121C A141G, with 1.99. Under U115C A129U stands 2.01; under U115C A129C, 1.68; under A117C G144U, 1.13. Under U130A A138U stands 1.64; under U130A A138G, 1.31; under A117G C133U, 2.55. With C118A A129G, the self-cleavage came to 1.1. Then A121U A140G, with 1.18; and A121U A140C, with 1.09; and A124U A138G, with 1.79. Then A124U A138U, with 1.37; and A124G G139A, with 1.84. For the variant G125U G144U, the self-cleavage came to 1.72. Then A124C A136G, with 1.15; and A121U U143C, with 1.59.

These data come from the RNAGym collection of RNA variant scans (doi:10.7554/elife.90254).
